Reference: the DeepSol protein solubility set

Experiment: soluble on expression in E. coli; label from the status in PepcDB or PDB records

Sequence	soluble on expression in E. coli
MGSDKIHHHHHHMNWSQIISLVSAGNYMEVEKILQDYPYIVDMADHLREQKLKVIANLDTYVKRTMDSVEKLGGHAYLAKDKDEARKIIGDLVGEKKTVVFSKTNVAYEIGLREFLQERNNEVWETDLGEYLVQISRGWPTHIVAPALDMTREEAAKAVKKIDPSINENSKIEDIVAAVRKFLMSKYVKADVGITGANAVAADSGSVALVENEGNIRIDTVMPPMHIAVTGIDKIVPTMRDALDEVMVQAAYAGIFPPTYINVTSGPSSTADIELRRVSPATGPKDFHLVLIDNGRLEASKNEDLKEALLCIKCGRCYFSCPIYRTLGKEWISTKSPYNGPTGVMWNYITNKDPWPASYCVHSGGCKEVCPMKINIPEVIKYIKFIGSKQVGK	not soluble
MGSDKIHHHHHHMNYTDTLKSVDLVLATGEVPLIIGESGIGKTALAKELAQQNQWSLVIINGNLLKEGEIGGLPTIESYVFSGPEAVNPLAATAAKTVGNEQGILQEKKSTVYAVHHKLREIDEAIARGQTVLLFIDEINRCEHTVQQELMNLILNREINGYILPEGVKILAAMNPSSKYGSDFDYQVVDMDAAQENRFVWLFMKPDHKQWIDWAIGAGIEPKVIEFISTFPDYLHKINEDDLRATPRSYERISSSYKIYQENKDSIPRSVFLNVVKGNVGRVIAEEFVNFAEADYSPLIAYDDIFSGTSLPESLRDKVKEESHTRLYLSARNILQTLESHLSKTPANAPDHAQSSMDRLVAFLKLYPVDLKIGIMKDIRSSYPEIYRQAIENEGFVDSYFESYGSLR	not soluble
MGSDKIHHHHHHMPATVPFVGPEAIERQRNLPVKARIGANESGFGPSPKVHLALQAASSDIWKYADPENFDLKAALAAHYGLAADNFAVGEGVDDLLGLTVRLVIEQGLPVVTSLGGYPTFNFHVNGFGGQLVTVPYRQDREDLDGLLEAVRRENAPLAYLANPDNPMGSWHESHDVVAFARALPETCLLILDEAYSETAPAGSIPAVDALIDLPNVLRMRTFSKAYGLAGARIGYAIGTPGTVSAFDKIRNHFGMVRTSVAAALAALADQDYLTATVARIIAARERISSIARQNGLQPLASATNFVAVDCGRDPAYARSIVDGLMQHGVFIRMPGVAPLNRCIRISAGLPEDLDLLEQALPIVLRDIG	not soluble
MGSDKIHHHHHHMPEIHQSIAQHYHERTKYDPETIASKSQRLDWAKQPVPFKEYKIGSAIDLKPYLQETPEVFVNDTNGQWWQRLSRLLFRSYGLTARMPSMGNTVYLRAAPSAGGLYPAEVYVVSRGTPLLSPGLYNYQCRTHSLIHYWESDVWQSLQEACFWHPALESTQLAIIVTAVFYRSAWRYEDRAYRRICLDTGHLLGNIELSAAITDYRPHLIGGFIDEAVNDLLYIDPLQEGAIAVLPLADLLDIQQNISPGCTALPSATETNYPQVPDGELLKYFHHHTQISASITGKLNLPTVIQEKSLEDKYNFPFCLKISTVSAPIYWGENLSDLEITMHKRRSTRAYNGEELTFDELKALLDFTYQPQNYIDQSLDNSPDYFDLNLIETFIAVCGVQGLEAGCYYYAPKAQELRQIRFKNFRRELHFLCLGQELGRDAAAVIFHTSDLKSAIAQYGDRVYRYLHMDAGHLGQRLNLAAIQLNLGVSGIGGFFDDQVNEVLGIPNDEAVIYITTLGRPR	not soluble
MGSDKIHHHHHHMPERVLNFRALFLHGLYKMDKPKAYCRLFLPSFLLLSACTVDISQPDPSATAVDAEAKTWAVKFQHQSSFTEQSIKEITAPDLKPGDLLFSSSLGVTSFGIRVFSTSSVSHVAIFLGDNNVAEATGAGVQIVSLKKAMKHSDKLFVLRVPDLTPQQATDITAFANKIKDSGYNYRGIVEFIPFMVTRQMCSLNPFSEDFRQQCVSGLAKAQLSSVGEGDKKSWFCSEFVTDAFAKAGHPLTLAQSGWISPADLMHMRIGDVSAFKPETQLQYVGHLKPGIYIKAGRFVGLTR	not soluble
MGSDKIHHHHHHMPETIKNISKKDAILKAALQLFSHRSFDGTTIPEIARVANVGAGTIYRYFISKEDLVNELFVRVLDDFTEHLQVGLHGQMDTRTRFHHLFNNAWNYVMNNVEAFLFINLNDEATYLNDRSRKSFSRMWDYIAEMVEQGADKGELIKLDPKFVASLVYGPLIPISKRFNNDNRQASQALAKALEEATWRAISTD	not soluble
MGSDKIHHHHHHMPIAIYQGHHHSLAPADINIVIDVIRAFTVAHYAFIGGAKEILLVRTADEAFALKDTYPDYVLTGEEKGVGISGFDLDNSPKRMAGQNMTDKSLIQKTTNGVTAALGALNAKHLFVTGFSNAKTTAQHVKKLVANDCVINIVASHPSGDDDMACAEYIKGIIEGTNVVTAAEAIERIKGSSVAEKFFDCRQPLFDSEDIVYCTKELTGDFVMKVKQDGEVPTIERVII	not soluble
MGSDKIHHHHHHMPKMGELTLTSVDEFDFRLLIKALGKGEKGSRALTFDEACLLLEGFAKGKATRAQMASAMMLMRVRGETTEEISGMVAGLRRTVDKDWHSLEVDIDWPVYAGKREQLPWLLLVAKLLAKQGVRVMLHGDSQALPHRRHVESCLASLNIACCTTPQMAKAALHSDNIVYVCAGDLAPVLDECRQLHQELGLRSLIQTAARCMNPTNAPISLRSYFHPGLDTVHQGICEILFEKSEYHAGSVAIFKGLQGETECNPRVATTITVVNGQTDNIAVSSLSIPTLLEGFSGAKVGQAELSSDILALLWREQEPFSADALTTLMSRTMIEQALSSMTATLAAVLLLLSRKSAMTEPNTTAIITTEQAVNLSQQCWTNRFNSTDCPLKQWRNRELLCAV	not soluble
MGSDKIHHHHHHMPLPENSVVEKNILNPEAVAEALERAMNLANPQTTHAAIAVPTSTVIHKTIEMDADMSDDEREVQIRVDAEQYIPFPLDEVSLDFEVLPDRLANPNRVNVLLVATRTENVETRVEVLELADLNPKLADVESYAVERAFSVFADSLPMGANTIGILDIGHTMTTLSVMQNGKIIYTREQVFGGKQLTLEIQSRYGLSLEEASRAKKDRSLPDDYEIEVLDPFLDAVVQQAARSLQFFFSSSQFNEIDHILLAGGNANIPGLAKLLQQKLGYRVTIANPFLQMGFSPQVDVQKIENDASSLMVACGLALRSFD	not soluble
MGSDKIHHHHHHMPNQAWSYQMLHLDLAWLNQLYSEFQEQGLDLHIPQHKPLIIKDEFLYDAFTEMNETLFDAQKLIFEKEQSLLHCLIHLLLPHFILEEIQKPQYLYKDFLNLIDVISSSEGFISLEELAQRVGLSRYAIIRLFKANVGLTPHAFQINLKINQAREQLKKGVPLAELAVNLGFSDQSHFHKAFKAHTGVTPRQFQLAAAQ	not soluble
MGSDKIHHHHHHMPSIFEKYHLKQVINTSGRMTALGVSTPRPEVVEAAMAGMNQYFEMKDLVNKTGEYIAKLLDVEGATVVSCASAGIAQSVAAVLVKDSDWLLENLHVTPIENNEIVLPKGHNVNFGAPVGTMVALGGGKLVEAGYANECSAQQLAAAITPRTAAILYIKSHHCVQKSMLNVAQAAEVARQHNVPLIVDAAAEEDLQCYYRMGADLVIYSGAKAIEGPTSGLVIGKTQYVEWVKRQSMGIGRAMKVGKEGILGLTCAIEHYLTASKESGQQMVAKMTPFIEQLNTLNGVTARVVWDSAGRDIARAEIKFDEATTGVKTGDLVNALKQGEYAIYFRGYKANEGIIEADVRSVNAQQLEVVARRIAEVLNKEKQA	not soluble
MGSDKIHHHHHHMPSSTTLQHAIENITIWRKGEQRAPHKPLLLLYVLSQYQRGHARMFDYASEIRDELHSLLERFGPQRRQYRPDMPFWRLKGDGFWELHNSDQCSTQGSRQPPGKELELCHVAGGFDEPHFALLNRNKRLINTLAHQILEAHFPESIQEELAEEMGFDLQQIRKERDPHFRQQVLRAYNYECAICGFNMRHDNTSVALEAAHIKWKQHGGPCEIPNGLALCAIHHKAFDKGSIGLDEDMRIQVSPAVNGGGIVGRLFWDFDGKPITLPQGKECYPQEGFVAWHRREVFRG	not soluble
MGSDKIHHHHHHMPTRVIEDKGDMTPSFGIDDRIFLGEGLFETIRVNSSKPSFAYMHWERLGNSARQLGIPFEISFDDWFEHLIQKIQKDNLYHGGIKAILSGGPASRGLAERGQVSQLIFQTFNYSIQKHPVRLISINWLRDKANPLYQLKSVNYLEAIIAQRQAIAVGADDALFFNTENHVTETTCANLFLIENNILYTPRVEDGILPGITRARLISHCQQHKMSVQEISLTKKRIEDADAVFLTNSLQGIRRVLSLDNIIFEVNHPIIDKLIFLLNQDES	not soluble
MGSDKIHHHHHHMPVDWPLRFPQLSGGASRPHSSLASTCVGGLQELMQSCYPPRGGCWIAAVLEDAGVERVCGLLGKGHAGVVLLVEWRGVAAALKVRRRDSRRGSLEPEARVAEKAALAGAAPEVYGYGEEFIAMAPALGPSLQDLAEEGLLTPQHILASIEAAWALDNAGILHGELHRPWRNVLFNPRKALIIDYDSASSGCGNVVKLVSGISRRVPSLLGLVRSERFRDLAKRYYREGCGKATYMEMLDEVKKHISVI	not soluble
MGSDKIHHHHHHMPVLPVSSYKGSGPLANGHVQTMFPVLFRPMPVVEYHRQRLETPDGDFLDVDFSSAAAAAQSESIAVISHGLEGHSRRRYVQGMARVLNARGWDAAAWNFRGCSGQPNRLPRMYHSGDTQDLHTVVTACAQKGYRRILLVGVSMGGNQILKYLGEDPDRVDSRVCGAVVFSVPCDLVGAAQVLGRPQNSVYMRYFLRTLRQKIKAKHAMYPDTIQMDGLDSIRTFAEFDDRYTAPLHGFSGALDYWTKSSCRQFLSSVRVPALLVNALNDPFLSASCYPYREARQSGSLFFETTVTGGHVGFVQFNRQNIYWSEERLLSFMDEQGL	not soluble
MGSDKIHHHHHHMQFGAKPLFENISVKFGGGNRYGLIGANGCGKSTFMKILTGDLEPSSGNVSLDVNERMGKLNQDQFAYEKFSVVDTVIMGHRELWKVKQERDRIYSLPEMTEEDGIKVSELEMEFAEMDGYTAESRAGDLLLGVGIGTEQHFGLMSQIAPGFKLRVLLAQALFSDPDLLLLDEPTNNLDIDTIRWLQDMLNQRNSTMVIISHDRYFLNSVCTHMADLDYGELRVYPGNYDEYMMAATQARERLQSDNAKKKAQIAELQTFVARFSANASKAKQATSRAKQIDKIKLDDIKASSRVNPFIRFEQEKKLFRNALIVENLAKGYDKPLFSNLNLMVEVGERIAILGENGVGKTTLMRTLVHDIPQDEGTIQWSENANIGYYAQDHEADFANDMTLFDWMSQWRKPEDDDQSVRAILGRMLFGSDDIKKSVTVLSGGEKGRMYFGKLIMQKANILMLDEPTNHMDMESIESLNNALEMYEGTLMFVSHDRAFVSSLATRILEVTANGVNDFKGTYDEFLRSKGIDA	not soluble
MGSDKIHHHHHHMQFTINHRTHYLYTDVVNYTIQKLRLTPQDGFGQRVKRWEIRVNGHLQRHDDAYGNAEHLLVLDTPHEEINILATGEVETGLDTPPAHDLLPREIYLRTTALTATDATLRNFAEQFRYDRFTGQILDEMMHAIVDKVPYYRGVTNVNTPAAEAFRSGHGVCQDHAHIFIACCRYLGIPARYVSGYLFTDDGSLMESHAWADACLPSGWISFDVSNRCRTNGVHVRLATGLDYSDACPVSGMRVGGGLETMTVGVHVSQLQSQQ	not soluble
MGSDKIHHHHHHMQGLGLIVCRQGSFQFSLDNKCASAKAGETLFIHEESWVQVLQETEDVEILILAYQIEPIRDIIGNSVVSMYMYSKLTPELSCVWNTGEEDEIMKYMSLIDSVLEMEESVFSLYEQKLLLLALTYRICSVYNRKLISAGQETGGRKNEIFVRLIQLIEQYYMQERSVEFYADKLCLSPKYLSALSKSICGYTVQELVFKAIIRKCISLLKNTQKNIQEISNEFGFPNASYFGTFFKKQMGMSPQQYRRNL	not soluble
